# From article PMC4854285
# Target: biotinylated peptide composed of residues 656-683 of the gp41 MPER (RRR-…-RRK-biotin) (HIV-1)
# Experiment: SPR
substance,measurement,value
10E8 antigen-binding fragment (Fab),Kd,17 nM
